These results are taken from the supplement of paper PMC9170038.

For this series, the system named is MS2 coat protein. Briefly: apparent KD of MS2 coat protein; designed switch direction (-1 OFF switch, 1 ON switch): 1; higher = weaker reporter binding. An outline of the steps: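 RNA switches sharing common flanks were transcribed by stalled E. coli RNA polymerase on Illumina chips. A doubling series of SNAP-549-labelled MS2 coat protein, from 0.7 or 1.5 nM to 3 µM, was applied in Tris-HCl pH 7.5 buffer with KCl, MgCl2, BSA, DTT, tRNA and Tween-20. Each step lasted 0.8–1.5 h at the bottom of the series and 10–20 min at the top. Normalised cluster fluorescence was curve-fitted, giving apparent KD as the per-design median over clusters.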

[1] abbreviates: Eterna round: R95, input ligand: FMN 200 uM.
[2] abbreviates: Eterna round: R95, input ligand: microRNA oligo, concentration not stated.
The mark [3] stands for this setting: Eterna round: R95, input ligand: none.
The mark [4] stands for this setting: input ligand: microRNA oligo, concentration not stated.

As for “AAGACAUUUGCUUAGGAUAUACAGGGCUCCACAUGAGGAUCACCCAUGUUAAAAGAGGAGUAAAUGUAGAAGGAAGCCUCCAAUA [Zazaes] (puzzle: Same State 2)”, the “apparent KD of MS2 coat protein” value worked out at 19.1 nM under setting [1], 59.8 nM under setting [2] and 66.3 nM under setting [3].

With “AAGGGAUGAGCGUAGGAUAUAGGAGAAGUGACAUGAGGAUCACCCAUGUAGGAGGAGGGAUGAGACUAGAAGGACGAGGUAGGAG [JR_SS2_Sub060] (puzzle: Same State 2)”, the “apparent KD of MS2 coat protein” value by setting is: under setting [1], 43.6 nM; under setting [2], 56.7 nM; under setting [3], 76.8 nM.

As to “AAGUAACAUGAGGAUCACCCAUGUGAGGUGAGCGUAGGAUAUCGAGAAGGAAGGGUGGAGCGAGAAGGACGAGGGA [JR_SS1_Sub0101] (puzzle: Same State 1)”, the “apparent KD of MS2 coat protein” value is, setting by setting: under setting [1], 565 nM; under setting [2], 463 nM; under setting [3], 389 nM.

Turning to “AAUAUACAUGAGGAUCACCCAUGUUAGUAAAUGACAGGAUAUCGAAUAAAUAAAUAAUAACGAGAAGGGUCUAAUA [JMF's solution 3] (puzzle: Same State 1)”, the “apparent KD of MS2 coat protein” value by setting is: under setting [1], 15.9 nM; under setting [2], 30.3 nM; under setting [3], 20.8 nM.

Turning to “AAUAUUUAUGCAGGAUAUGAUUAACAUGAGGAUCACCCAUGUGGUGUUGUGAGUAAGGAGAGUGAUCAGAAGGGCAUUUUUUUU [JMF's solution 73] (Eterna round: R96, puzzle: Same State NG 2)”, the “apparent KD of MS2 coat protein” value by setting is: (input ligand: FMN 200 uM) 379 nM; under setting [4], 271 nM; (input ligand: none) 463 nM.

Turning to “AAUCGUUUGAUAGGAUAUCGCUAUACAUGAGGAUCACCCAUGUUUACCACGCUGGUUUUUCAUACCGAGAAGGAUUCUGAUGAC [salish99_SSNG02_r04_002] (Eterna round: R96, puzzle: Same State NG 2)”, the “apparent KD of MS2 coat protein” value is, setting by setting: (input ligand: FMN 200 uM) 26.2 nM; under setting [4], 22.6 nM; (input ligand: none) 29.8 nM.

In the case of “AAUCGUUUGAUAGGAUAUCGUUAUACAUGAGGAUCACCCAUGUUUACCACGCUGGUUUUUCGUACCGAGAAGGAUUCUGAUGAU [JL JR sub007 mod 6] (Eterna round: R96, puzzle: Same State NG 2)”, the “apparent KD of MS2 coat protein” value by setting is: (input ligand: FMN 200 uM) 30.5 nM; under setting [4], 20.2 nM; (input ligand: none) 27.5 nM.

For the sequence “AAUUAUUAACAUGAGGAUCACCCAUGUAUUAUUAUUAUUAUUAACAAGCUUUUUCAUGUUAUUAGCUCGUCUUAUAA [Bojan's Design 2] (puzzle: Sensor for hsa-mir-208a version 2)”, the “apparent KD of MS2 coat protein” value under setting [1] was determined as 16.5 nM, the “apparent KD of MS2 coat protein” value under setting [2] amounted to 31.7 nM and the “apparent KD of MS2 coat protein” value under setting [3] amounted to 15.4 nM.

On to “AAUUGUUUCUGAGGAUAUCAGUAGUAUGCUUUUUGAGAAGGCAGUACAUGAGGAUCACCCAUGUUGUGGUUUGAUAGAAUGAUA [JR_SSNG1_Sub004] (Eterna round: R96, puzzle: Same State NG 1)”, for which the “apparent KD of MS2 coat protein” value under setting [4] was 130 nM.

Consider “ACAAGACAGGGAGGAUAUAGCUGUUCAUCAAAGUUAGAAGGCUCGUACACAUGAGGAUCACCCAUGUUGUCGGCAGUCGACUGA [Eternabot solution 42] (Eterna round: R96, puzzle: Same State NG 1)”, for which the “apparent KD of MS2 coat protein” value by setting is: (input ligand: FMN 200 uM) 7.44 nM; under setting [4], 9.67 nM; (input ligand: none) 12.2 nM.

“ACAAGCUUUUUGCUCGUCUUCAUGUAAUAACAUGAGGAUCACCCAUGUAACGUUAAAAGUCUCUCGAUAAUAGCUCA [Meechl hsa-mir-208a 1] (puzzle: Sensor for hsa-mir-208a)”: the “apparent KD of MS2 coat protein” value under setting [1] was 132 nM, the “apparent KD of MS2 coat protein” value under setting [2] stood at 33.6 nM and the “apparent KD of MS2 coat protein” value under setting [3] was found to be 348 nM.

Take “ACAUGAAAUUGAGGAUAUUUUGUACCUACAUGUGACAUGAGGAUCACCCAUGUGGUAAGUAUAAGAGAGAAGGCAAAGAUAUGU [Equivalence 6 - Jieux - Same State NG 2] (Eterna round: R96, puzzle: Same State NG 2)”: the “apparent KD of MS2 coat protein” value reads like this: (input ligand: FMN 200 uM) 30 nM; under setting [4], 29.2 nM; (input ligand: none) 45.1 nM.

Take “ACAUGAGACCAAGGAUAUUUUGUACCUACAUGUGACAUGAGGAUCACCCAUGUGGUAAGUAUGAGAGAGAAGGUGGAGAUAUGU [Equivalence 23 - Jieux - Same State NG 2] (Eterna round: R96, puzzle: Same State NG 2)”: the “apparent KD of MS2 coat protein” value was 34.4 nM (input ligand: FMN 200 uM), 21.5 nM under setting [4] and 36.5 nM (input ligand: none).

For “ACAUGAGACCGAGGAUAUUUUGUACCUACAUGUGACAUGAGGAUCACCCAUGUGGUAAGUAUGAGAAAGAAGGCGGAGAUAUGU [Equivalence 20 - Jieux - Same State NG 2] (Eterna round: R96, puzzle: Same State NG 2)”, the “apparent KD of MS2 coat protein” value runs as follows: (input ligand: FMN 200 uM) 22.4 nM; under setting [4], 24.8 nM; (input ligand: none) 32.6 nM.

On to “ACAUGAGACCUAGGAUAUCUUGUACCUACAUGUGACAUGAGGAUCACCCAUGUGGUAAGUAUGAGAGAGAAGGAGGAGAUAUGU [Equivalance 54 - Jieux - Same State NG 2] (Eterna round: R96, puzzle: Same State NG 2)”, for which the “apparent KD of MS2 coat protein” value (input ligand: FMN 200 uM) came to 15.4 nM, the “apparent KD of MS2 coat protein” value under setting [4] came to 12.3 nM and the “apparent KD of MS2 coat protein” value (input ligand: none) amounted to 17.6 nM.

As for “ACAUGAGACUCAGGAUAUAUUGUACCUACAUGUGACAUGAGGAUCACCCAUGUGGUAAGUAUGACAUAGAAGGGAGAGAUAUGU [Equivalance 86 - Jieux - Same State NG 2] (Eterna round: R96, puzzle: Same State NG 2)”, the “apparent KD of MS2 coat protein” value runs as follows: (input ligand: FMN 200 uM) 37.3 nM; under setting [4], 40.5 nM; (input ligand: none) 59.9 nM.

For the sequence “ACAUGAGAGAUAGGAUAUUGUGUACCUACAUGUGACAUGAGGAUCACCCAUGUGGUAAGUAUGAGCAAGAAGGAUCAGAUAUGU [Equivalance 51 - Jieux - Same State NG 2] (Eterna round: R96, puzzle: Same State NG 2)”, the “apparent KD of MS2 coat protein” value is, setting by setting: (input ligand: FMN 200 uM) 23.2 nM; under setting [4], 35.9 nM; (input ligand: none) 69.5 nM.

“ACAUGAGAGCUAGGAUAUUUUGUACCUACAUGUGACAUGAGGAUCACCCAUGUGGUAAGUAUGAGAAAGAAGGAGCAGAUAUGU [Equivalance 53 - Jieux - Same State NG 2] (Eterna round: R96, puzzle: Same State NG 2)”: the “apparent KD of MS2 coat protein” value was found to be 14.9 nM (input ligand: FMN 200 uM), 30.7 nM under setting [4] and 38 nM (input ligand: none).

As to “ACAUGAGAGUUAGGAUAUCUUGUACCUACAUGUGACAUGAGGAUCACCCAUGUGGUAAGUAUGACAGAGAAGGAACAGAUAUGU [Equivalance 69 - Jieux - Same State NG 2] (Eterna round: R96, puzzle: Same State NG 2)”, the “apparent KD of MS2 coat protein” value turned out to be 36.2 nM (input ligand: FMN 200 uM), 50.2 nM under setting [4] and 91.1 nM (input ligand: none).

With “ACAUGAGAGUUAGGAUAUCUUGUACCUACAUGUGACAUGAGGAUCACCCAUGUGGUAAGUAUGAGGGAGAAGGGACAGAUAUGU [Equivalence 44 - Jieux - Same State NG 2] (Eterna round: R96, puzzle: Same State NG 2)”, the “apparent KD of MS2 coat protein” value reads like this: (input ligand: FMN 200 uM) 67.4 nM; under setting [4], 54.4 nM; (input ligand: none) 84.7 nM.

Consider “ACAUGAGAUAGAGGAUAUGUUGUACCUACAUGUGACAUGAGGAUCACCCAUGUGGUAAGUAUGAUACAGAAGGCUAAGAUAUGU [Equivalance 60 - Jieux - Same State NG 2] (Eterna round: R96, puzzle: Same State NG 2)”, for which the “apparent KD of MS2 coat protein” value was 16.5 nM (input ligand: FMN 200 uM), 19.1 nM under setting [4] and 30.1 nM (input ligand: none).

Take “ACAUGAGAUUUAGGAUAUAUAGUACCUACAUGUGACAUGAGGAUCACCCAUGUGGUAAGUAUGACAUAGAAGGAAAAGAUAUGU [Equivalance 98 - Jieux - Same State NG 2] (Eterna round: R96, puzzle: Same State NG 2)”: the “apparent KD of MS2 coat protein” value under setting [4] stood at 47.9 nM.

With “ACAUGAGGAUCACCCAUGUAUGCUCAGGAAACUGUGCAGCAUGAGGAUAUGGAUCCUAAUUGGAUCCAGAAGGCGUGAAUUAUU [Fiskers NG3ss - 25] (Eterna round: R96, puzzle: Same State NG 3)”, the “apparent KD of MS2 coat protein” value is, setting by setting: (input ligand: FMN 200 uM) 507 nM; under setting [4], 692 nM; (input ligand: none) 2520 nM.

Take “ACAUGAGGAUCACCCAUGUCGCUGGUAUCGGAUACGUAUUACGAGGAUAUGCCGAGGAGUUCCGAGUAGAAGGUGUAAUACAUG [Eternabot solution 40] (Eterna round: R96, puzzle: Same State NG 3)”: the “apparent KD of MS2 coat protein” value worked out at 178 nM (input ligand: FMN 200 uM), 90.3 nM under setting [4] and 102 nM (input ligand: none).

Take “ACAUUUAGCUCUUGCACAUGAGGAUCACCCAUGUUCGGUUCACAGGAUAUCUAGUCAAACGGGCUGGAGAAGGGUGGCAGGAGC [Islainon] (Eterna round: R96, puzzle: Same State NG 3)”: the “apparent KD of MS2 coat protein” value by setting is: (input ligand: FMN 200 uM) 67.9 nM; under setting [4], 200 nM; (input ligand: none) 289 nM.

Consider “ACCCAAAGUAUAUGGGAGCAAGCUUUUUAACAUGAGGAUCACCCAUGUACUCGUCUUAUAAGCAGUCGAAAGACUGC [Sensor 100 - 4] (Eterna round: R96, puzzle: Sensor for hsa-mir-208a)”, for which the “apparent KD of MS2 coat protein” value is 873 nM (input ligand: FMN 200 uM), 13.8 nM under setting [4] and 940 nM (input ligand: none).
